Assay results from publication PMC6100724, “Proteome‐wide analysis of phospho‐regulated PDZ domain interactions” (Molecular Systems Biology, 2018).
Blank lines part the entries; values can stand above or below the binder they belong to. Square brackets hold non-standard residues; d marks the D form. Ends that are not written are not given here. * marks the point of attachment. FITC = O=C1OC2(c3ccc(O)cc3Oc3cc(O)ccc32)c2ccc(NC(=S)*)cc21; pS = N[C@@H](COP(=O)(O)O)C(=O)O

Legend:
Settings in all cases: both partners purified
[1] = target: T1, Scribble PDZ1 (human, aa 719-829) (human, UniProt Q14160 719-829); assay: ITC; iTC200, 25°C, 20 mM HEPES pH 7.4; protein 50-100 µM in the cell, 0.64-3 mM peptide in the syringe; single-site fit, stoichiometry fixed to 0.8-1.1; triplicate
T1 construct: Scribble, human, PDZ1, aa 719-829 in pETM-11; The His tag was cleaved only for the NMR samples; nothing is said of cleavage for MST and ITC; also called Scribble PDZ1 wild type; source: E. coli BL21 Gold (DE3), purified (Ni2+ Sepharose)

Scribble PDZ1 R762A = target: T2, Scribble PDZ1 R762A (human, UniProt Q14160 719-829, R762A); assay: as above
T2 construct: Scribble, human, PDZ1, aa 719-829 in pETM-11, with R762A; source: E. coli BL21 Gold (DE3), purified (Ni2+ Sepharose)

[2] = target: T3, Scribble PDZ1 R762A/A743R (human, UniProt Q14160 719-829, A743R | R762A); assay: as above
T3 construct: Scribble, human, PDZ1, aa 719-829 in pETM-11, with R762A and A743R; also called R762A/A743R mutant; source: E. coli BL21 Gold (DE3), purified (Ni2+ Sepharose)

[3] = target: T4, Scribble PDZ1 R762A/A743R (human, UniProt Q14160 719-829, R762A | A743R); assay: ITC; iTC200, 25°C, 20 mM HEPES pH 7.4; protein 50-100 μM in the cell, peptide 0.64-3 mM in the syringe; single-site fit, stoichiometry fixed to 0.8-1.1; n = 3
T4 construct: human Scribble, PDZ1, aa 719-829, A743R introduced in the background of R762A; also called R762A/A743R mutant; source: E. coli BL21 Gold (DE3), purified (Ni2+ Sepharose), dialysed

[4] = target: T5, DLG1 PDZ2 (human, aa 311-407) (human, UniProt Q12959 311-407); assay: MST; FITC-labelled peptide fixed at 25-50 nM, PDZ domain titrated (1:1 dilution series); 50 mM Tris-HCl pH 7.4, 0.1% Tween-20; thermophoresis and T-Jump signal; triplicate
T5 construct: DLG1, human, PDZ2, aa 311-407 in a modified pRSET vector; also called DLG PDZ2; source: E. coli BL21 Gold (DE3), purified (Ni2+ Sepharose)

[5] = target: T1, Scribble PDZ1 (human, aa 719-829); assay: as above
[6] = target: T6, DLG1 PDZ2 (human DLG1 PDZ2 aa 311-407) (human, UniProt Q12959 311-407); assay: MST; FITC-labeled peptide fixed at 25-50 nM, DLG1 PDZ2 titrated (1:1 dilution series); 50 mM Tris-HCl pH 7.4, 0.1% Tween-20; KD from thermophoresis and T-Jump signal; n = 3
T6 construct: Disks large homolog 1 (DLG1), human, second PDZ domain, aa 311-407, in a modified pRSET vector (Chi et al, 2009); removal of the His tag is told only for the NMR sample of Scribble PDZ1 and for SHANK1 PDZ; also called DLG PDZ2; source: E. coli BL21 Gold (DE3), purified (Ni2+ Sepharose), dialyzed into 50 mM Tris-HCl pH 7.4

[7] = target: T7, SHANK1 PDZ (human, aa 652-761) (human, UniProt Q9Y566 652-761); assay: MST; FITC-labelled peptide fixed at 25-50 nM, untagged SHANK1 PDZ titrated (1:1 dilution series); PBS, 10 mM MgCl2, 0.05% Tween-20; thermophoresis and T-Jump signal; triplicate
T7 construct: Shank1, human, PDZ, aa 652-761 in pETM-33; source: E. coli BL21 Gold (DE3), purified (Ni2+ Sepharose; tag removed with HRV3C protease)
T7 sequence (looked up): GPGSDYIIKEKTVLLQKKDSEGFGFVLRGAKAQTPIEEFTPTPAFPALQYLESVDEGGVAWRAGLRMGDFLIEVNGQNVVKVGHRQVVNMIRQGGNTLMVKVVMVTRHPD

[8] = target: T8, DLG1 PDZ2 (His-tagged, aa 311-407) (human, UniProt Q12959 311-407); assay: MST; FITC-labeled peptide fixed at 25-50 nM, protein (Scribble PDZ1 or DLG1 PDZ2) in a 1:1 dilution series; 50 mM Tris-HCl pH 7.4, 0.1% Tween-20; thermophoresis and T-Jump signal; n = 3
T8 construct: human DLG1, PDZ2, aa 311-407, in a modified pRSET vector; also called DLG PDZ2; source: E. coli BL21 Gold (DE3), purified (Ni2+ Sepharose), dialysed

[9] = target: T9, Scribble PDZ1 (His-tagged, aa 719-829) (human, UniProt Q14160 719-829); assay: as above
T9 construct: human Scribble, PDZ1, aa 719-829, in pETM-11; Used for MST and ITC; removal of the His tag is told only for the NMR samples; also called Scribble PDZ1 wild type; source: E. coli BL21 Gold (DE3), purified (Ni2+ Sepharose), dialysed

[10] = target: T9, Scribble PDZ1 (His-tagged, aa 719-829); assay: ITC; iTC200, 25°C, 20 mM HEPES pH 7.4; protein 50-100 μM in the cell, peptide 0.64-3 mM in the syringe; single-site fit, stoichiometry fixed to 0.8-1.1; n = 3

T9 sequence (Q14160 719-829): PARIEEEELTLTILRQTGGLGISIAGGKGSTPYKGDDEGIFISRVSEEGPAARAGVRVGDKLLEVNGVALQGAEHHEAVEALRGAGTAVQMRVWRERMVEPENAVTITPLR
T1 sequence (Q14160 719-829): as above
T6 sequence (Q12959 311-407): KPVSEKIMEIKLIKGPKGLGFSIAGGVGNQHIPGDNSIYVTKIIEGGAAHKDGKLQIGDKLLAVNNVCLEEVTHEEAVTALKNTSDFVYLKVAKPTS
T5 sequence (Q12959 311-407): as above
T4 sequence (Q14160 719-829 A743R/R762A): as the sequence (Q14160 719-829) above, with A25R, R44A counted along it
T8 sequence (Q12959 311-407): as the sequence (Q12959 311-407) above
T3 sequence (Q14160 719-829 A743R/R762A): as the sequence (Q14160 719-829) above, with A25R, R44A counted along it
T2 sequence (Q14160 719-829 R762A): as the sequence (Q14160 719-829) above, with R44A counted along it

B7: FITC-KRSFIESNV (TANC1 peptide, unphosphorylated) (peptide)
peptide: {FITC}-KRSFIESNV
notes: C-terminal nine residues of TANC1, human; source: synthetic peptide, bought: GeneCust
Kd [4]: 2.7 µM
Kd [5]: 42 µM

B8: FITC-HTNETpSL (MCC peptide, phosphorylated at p-1) (peptide)
peptide: {FITC}-HTNET[pS]L
notes: C-terminal peptide of human MCC; also called pMCC; source: synthetic peptide, bought: GeneCust
Kd [8]: 57 µM

B9: MCC peptide RPHTNETpSL (p-1 phosphorylated) (peptide)
peptide: RPHTNET[pS]L
notes: C-terminal nine residues of MCC (colorectal mutant cancer protein), human; also called pMCC; source: synthetic peptide, bought: GeneCust
Kd [1]: 2.6 µM
Kd (Scribble PDZ1 R762A): 25 µM
Kd [2]: 14 µM

B10: FITC-RLTpSTRL, p-3 phosphorylated RPS6KA2 peptide (peptide)
peptide: {FITC}-RLT[pS]TRL
notes: also called RPS6KA2 Phosphorylated; source: synthetic peptide (GeneCust)
Kd [6]: 72 µM

B12: FITC-KRpSFIESNV, p-6 phosphorylated TANC1 peptide (peptide)
peptide: {FITC}-KR[pS]FIESNV
notes: also called TANC1 Phosphorylated; source: synthetic peptide (GeneCust)
Kd [6]: 6.1 µM

B14: FITC-HTNETSL (MCC peptide, unphosphorylated) (peptide)
peptide: {FITC}-HTNETSL
notes: C-terminal seven residues of MCC, human; source: synthetic peptide, bought: GeneCust
Kd [5]: 1.8 µM
Kd [7]: 15 µM

B18: FITC-KREFIESNV (TANC1 peptide, phosphomimetic at p-6) (peptide)
peptide: {FITC}-KREFIESNV
notes: also called Mimetic TANC1; source: synthetic peptide, bought: GeneCust
Kd [4]: 5.1 µM
Kd [5]: 52 µM

B19: FITC-KRSFIESNV, unphosphorylated TANC1 peptide (peptide)
peptide: {FITC}-KRSFIESNV
notes: also called TANC1 Unphosphorylated; source: synthetic peptide (GeneCust)
Kd [6]: 2.7 µM

B22: RPHTNETpSL (MCC peptide, phosphorylated at p-1, unlabelled) (peptide)
peptide: RPHTNET[pS]L
notes: C-terminal peptide of human MCC; also called phosphorylated MCC; source: synthetic peptide, bought: GeneCust
fold lower KD than for the unphosphorylated peptide [10]: 2 fold
binding result [3]: binds

B23: FITC-HTNETSL (MCC peptide, unphosphorylated) (peptide)
peptide: {FITC}-HTNETSL
notes: C-terminal peptide of human MCC (colorectal mutant cancer protein); also called wild-type MCC peptide; source: synthetic peptide, bought: GeneCust
Kd [8]: 6.4 µM

Results, then the binder that gave them:

Kd [1]: 4.4 µM
Kd (Scribble PDZ1 R762A): 11.3 µM
Kd [2]: 5.8 µM
B1: MCC peptide RPHTNETSL (unphosphorylated) (peptide)
peptide: RPHTNETSL
notes: C-terminal nine residues of MCC (colorectal mutant cancer protein), human; source: synthetic peptide, bought: GeneCust

binding result [3]: binds
B2: MKRLTSTRL (RPS6KA2 peptide, unphosphorylated, unlabelled) (peptide)
peptide: MKRLTSTRL
notes: C-terminal peptide of human RPS6KA2; also called unphosphorylated RPS6KA2; unphosphorylated ligand; source: synthetic peptide, bought: GeneCust

binding result [3]: binds
B3: RPHTNETSL (MCC peptide, unphosphorylated, unlabelled) (peptide)
peptide: RPHTNETSL
notes: C-terminal peptide of human MCC; also called unphosphorylated MCC; source: synthetic peptide, bought: GeneCust

Kd [4]: 6.1 µM
Kd [5]: 101 µM
B4: FITC-KRpSFIESNV (TANC1 peptide, p-6 phosphorylated) (peptide)
peptide: {FITC}-KR[pS]FIESNV
notes: C-terminal nine residues of TANC1, human; also called pTANC1; source: synthetic peptide, bought: GeneCust

Kd [6]: 14 µM
B5: FITC-RLTETRL, phosphomimetic (p-3) RPS6KA2 peptide (peptide)
peptide: {FITC}-RLTETRL
notes: also called RPS6KA2 Mimetic; source: synthetic peptide (GeneCust)

Kd [4]: 14 µM
Kd [5]: 0.7 µM
Kd [7]: 62 µM
B6: FITC-RLTETRL (RPS6KA2 peptide, phosphomimetic at p-3) (peptide)
peptide: {FITC}-RLTETRL
notes: C-terminal seven residues of RPS6KA2, human, with S730E; also called Mimetic RPS6KA2; source: synthetic peptide, bought: GeneCust

Kd [4]: 95 µM
Kd [5]: 8.9 µM
Kd [7]: 4.5 µM
B11: FITC-RLTSTRL (RPS6KA2 peptide, unphosphorylated) (peptide)
peptide: {FITC}-RLTSTRL
notes: C-terminal seven residues of RPS6KA2, human; source: synthetic peptide, bought: GeneCust

Kd [4]: 72 µM
Kd [5]: 1.7 µM
Kd [7]: 16 µM
B13: FITC-RLTpSTRL (RPS6KA2 peptide, p-3 phosphorylated) (peptide)
peptide: {FITC}-RLT[pS]TRL
notes: C-terminal seven residues of RPS6KA2, human; the methods give pS at this position; also called pRPS6KA2; source: synthetic peptide, bought: GeneCust

Kd [6]: 95 µM
B15: FITC-RLTSTRL, unphosphorylated RPS6KA2 peptide (peptide)
peptide: {FITC}-RLTSTRL
notes: C-terminal peptide of human RPS6KA2 (RLTSTRL-coo-); also called RPS6KA2 Unphosphorylated; source: synthetic peptide (GeneCust)

Kd [9]: 0.39 µM
B16: FITC-labeled RPS6KA1 peptide, p-3 phosphorylated (VRKLPpSTTL) (peptide)
peptide: VRKLP[pS]TTL
modifications: also: FITC label, position not given here
notes: C-terminal tail of human RPS6KA1; also called phosphorylated RPS6KA1; source: synthetic peptide (FITC-labeled)

Kd [4]: 21 µM
Kd [5]: 1.1 µM
Kd [7]: 52 µM
B17: FITC-HTNETEL (MCC peptide, phosphomimetic at p-1) (peptide)
peptide: {FITC}-HTNETEL
notes: also called Mimetic MCC; source: synthetic peptide, bought: GeneCust

Kd [5]: 0.6 µM
Kd [7]: 47 µM
B20: FITC-HTNETpSL (MCC peptide, p-1 phosphorylated) (peptide)
peptide: {FITC}-HTNET[pS]L
notes: C-terminal seven residues of MCC, human; also called pMCC; source: synthetic peptide, bought: GeneCust

Kd [9]: 1 µM
B21: FITC-labeled RPS6KA1 peptide, unphosphorylated (VRKLPSTTL) (peptide)
peptide: VRKLPSTTL
modifications: also: FITC label, position not given here
notes: C-terminal tail of human RPS6KA1; also called unphosphorylated RPS6KA1 peptide; source: synthetic peptide (FITC-labeled)
